Test results: the supplement of paper PMC7877785
± gives the uncertainty stated by the source.

Test: self-splicing fitness, log relative to wild type (ln ratio); higher = more splicing; Tetrahymena group I intron in knt gene, E. coli kanamycin selection, DiMSum; sequences stand for … in CUCUCU…GGAGGGAAAAGUUAUCAGGCAUGCACCUGGUAGCUAGUCUUUAAACCAAUAGAUUGCAUCGGUUUAAAAGGCAAGACCGUCAAAUUGCGGGAAAGGGGUCAACAGCCGUUCAGUACCAAGUCUCAGGGGAAACUUUGAGAUGGCCUUGCAAAGGGUAUGGUAAUAAGCUGACGGACAUGGUCCUAACCACGCAGCCAAGUCCUAAGUCAACAGAUCUUCUGUUGAUAUGGAUGCAGUUCACAGACUAAAUGUCGGUCGGGGAAGAUGUAUUCUUCUCAUAAGAUAUAGUCGGACCUCUCCUUAAUGGGAGCUAGCGGAUGAAGUGAUGCAACACUGGAGCCGCUGGGAACUAAUUUGUAUGCGAAAGUAUAUUGAUUAGUUUUGGAGUACUCGUGGUCG
Procedure, shortened: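 Pooled colonies went to amplicon sequencing on an Illumina HiSeq 2500 after six replicate transformations. The plates were LB agar with 100 μg/mL carbenicillin, 50 μM IPTG and 0.2% rhamnose, with or without 25 μg/mL kanamycin, incubated overnight at 37°C or 30°C. The E. coli BL21(DE3) library had all eight P1ex-region intron nucleotides randomised, the intron placed in the knt kanamycin-resistance gene on pET-22b(+). DiMSum fitness is the error-weighted combination of replicate fold changes, kanamycin against none, normalised to wild type.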

Sequence	self-splicing fitness (ln) (30 °C)	self-splicing fitness (ln) (37 °C)
ACUGAGCAAUAUUACGUAUA	-2.58 ± 0.2	-1.97 ± 0.25
AUCAAGCAAUAUUACGACUA	-0.634 ± 0.076	0.132 ± 0.088
CCCAAGCAAUAUUACGACAU	-3.83 ± 0.021	-2.8 ± 0.037
GAUCAGCAAUAUUACGUGCC	-1.16 ± 0.13	-0.652 ± 0.24
UGCUAGCAAUAUUACGCGUU	-1.7 ± 0.14	-0.563 ± 0.14
CCCGAGCAAUAUUACGCACG	–	-3.26 ± 0.47
UACCAGCAAUAUUACGUGCG	-0.811 ± 0.044	-0.367 ± 0.061
AGGAAGCAAUAUUACGGCCA	-0.118 ± 0.14	0.223 ± 0.19
UCUGAGCAAUAUUACGCUCC	-2.04 ± 0.49	–
AGGCAGCAAUAUUACGUUAC	-3.46 ± 0.2	-2.55 ± 0.31
UUACAGCAAUAUUACGAAGA	-1.25 ± 0.15	-0.992 ± 0.15
GCCGAGCAAUAUUACGUUUG	-3.75 ± 0.2	-1.54 ± 0.19
UCAGAGCAAUAUUACGGAGC	-3.49 ± 0.36	-1.44 ± 0.36
AUUAAGCAAUAUUACGAACG	-1.59 ± 0.18	-0.243 ± 0.15
AAGUAGCAAUAUUACGGGAA	-2.74 ± 0.2	-2.8 ± 0.23
AUAUAGCAAUAUUACGCAUU	-3.04 ± 0.18	-1.42 ± 0.15
UCUAAGCAAUAUUACGCAAU	–	-3.12 ± 0.43
CUUUAGCAAUAUUACGUGAA	-3.77 ± 0.35	-2.65 ± 0.28
UCGAAGCAAUAUUACGUCUU	-3.87 ± 0.14	-2.29 ± 0.15
UCCCAGCAAUAUUACGCGCU	-4.15 ± 0.33	-2.84 ± 0.34
UUCCAGCAAUAUUACGCACU	-3.48 ± 0.31	-0.748 ± 0.16
ACAGAGCAAUAUUACGGCGG	-3.41 ± 0.26	-1.98 ± 0.24
CUACAGCAAUAUUACGGAUU	-3.46 ± 0.14	-2.5 ± 0.21
UUAAAGCAAUAUUACGUCAU	-1.94 ± 0.18	-0.671 ± 0.17
AGUGAGCAAUAUUACGAGGG	-3.75 ± 0.24	-2.13 ± 0.35
AACUAGCAAUAUUACGUAUC	-3.83 ± 0.34	-2.38 ± 0.29

Sequence	self-splicing fitness (ln) (30 °C)	self-splicing fitness (ln) (37 °C)
ACGUAGCAAUAUUACGGUUA	-0.772 ± 0.091	-0.0368 ± 0.092
UUUGAGCAAUAUUACGAUAC	-3.55 ± 0.48	–
GGCCAGCAAUAUUACGAGGG	-3.58 ± 0.16	-1.75 ± 0.17
AAUGAGCAAUAUUACGAAAG	–	-3.18 ± 0.4
CUUGAGCAAUAUUACGCUAG	-3.17 ± 0.28	-2.48 ± 0.27
AUGCAGCAAUAUUACGUAAG	-0.932 ± 0.062	-0.743 ± 0.077
GACAAGCAAUAUUACGGUCC	-3.13 ± 0.2	-1.83 ± 0.29
GAAUAGCAAUAUUACGUACU	-0.732 ± 0.11	-0.151 ± 0.12
CCACAGCAAUAUUACGCGUA	-2.81 ± 0.18	-2.41 ± 0.2
UACCAGCAAUAUUACGAACG	-0.468 ± 0.063	-0.562 ± 0.07
GGAUAGCAAUAUUACGGUCA	-0.171 ± 0.081	-0.0595 ± 0.11
AGCGAGCAAUAUUACGCUGA	-3.2 ± 0.18	-2.51 ± 0.18
AAUUAGCAAUAUUACGGGGA	-2.98 ± 0.27	-2.07 ± 0.26
CUUCAGCAAUAUUACGACUC	-2.49 ± 0.21	-1.46 ± 0.23
AACCAGCAAUAUUACGUCCU	0.026 ± 0.043	-0.134 ± 0.053
CACUAGCAAUAUUACGUAAU	-3.08 ± 0.22	-2.54 ± 0.2
UUACAGCAAUAUUACGAUAA	-0.0512 ± 0.1	-0.232 ± 0.11
UAGUAGCAAUAUUACGUGUA	-3.16 ± 0.21	-0.527 ± 0.12
AACUAGCAAUAUUACGUGGG	-3.79 ± 0.23	-2.38 ± 0.17
UAGUAGCAAUAUUACGAUGG	-2.93 ± 0.12	-1.54 ± 0.11
CCCAAGCAAUAUUACGGUUC	-3.38 ± 0.13	-2.6 ± 0.18
UCACAGCAAUAUUACGGCCA	-1.78 ± 0.28	-1.19 ± 0.21
CUUAAGCAAUAUUACGUUCG	-1.05 ± 0.075	-0.0528 ± 0.099
UGAUAGCAAUAUUACGAUAG	-0.826 ± 0.28	-0.505 ± 0.32
UUCAAGCAAUAUUACGCUUA	-1.32 ± 0.096	-1.2 ± 0.096
AACCAGCAAUAUUACGAUAA	-1.35 ± 0.058	-0.457 ± 0.069

Sequence	self-splicing fitness (ln) (30 °C)	self-splicing fitness (ln) (37 °C)
GCUCAGCAAUAUUACGAUGA	-2.09 ± 0.2	-2.26 ± 0.31
ACUAAGCAAUAUUACGUUCG	-1.06 ± 0.074	-0.408 ± 0.092
UGCGAGCAAUAUUACGACUG	-0.639 ± 0.17	-0.0696 ± 0.2
GUAAAGCAAUAUUACGAGAG	-3.16 ± 0.16	-3.37 ± 0.23
GAGUAGCAAUAUUACGUAUG	-2.85 ± 0.13	-2.51 ± 0.19
ACCAAGCAAUAUUACGGGGG	-2.15 ± 0.096	-2.29 ± 0.14
CGUGAGCAAUAUUACGGUUU	-3.81 ± 0.18	-3.28 ± 0.22
ACCAAGCAAUAUUACGGUUA	-1.63 ± 0.1	-1.68 ± 0.096
AAUAAGCAAUAUUACGCUAC	-3.62 ± 0.34	-1.82 ± 0.23
GCAAAGCAAUAUUACGAAUG	-3.4 ± 0.15	-1.77 ± 0.12
GACGAGCAAUAUUACGACGU	-2.31 ± 0.23	-1.13 ± 0.25
CGGGAGCAAUAUUACGUCUG	-3.61 ± 0.22	-2.03 ± 0.22
AUCGAGCAAUAUUACGAUAU	-2.14 ± 0.17	-0.583 ± 0.14
AAUGAGCAAUAUUACGCCGG	-3.52 ± 0.47	-2.35 ± 0.36
GCCGAGCAAUAUUACGACGA	-1.34 ± 0.11	-0.792 ± 0.098
CUCCAGCAAUAUUACGUCUG	-3.51 ± 0.17	-2.54 ± 0.18
CUGUAGCAAUAUUACGGAAG	-3.31 ± 0.16	-2.22 ± 0.19
CAGUAGCAAUAUUACGGGGG	-3.48 ± 0.33	-2.02 ± 0.42
CUAGAGCAAUAUUACGUAAU	-3.79 ± 0.2	-2.22 ± 0.23
UCGAAGCAAUAUUACGUCUC	-2.49 ± 0.15	-2.28 ± 0.32
CUGUAGCAAUAUUACGGUGU	-3.41 ± 0.12	-2.88 ± 0.14
UUUAAGCAAUAUUACGGCAU	-1.59 ± 0.11	-0.239 ± 0.12
CUGGAGCAAUAUUACGUUGU	-2.64 ± 0.29	-3.72 ± 0.33
CUGCAGCAAUAUUACGCGCG	-1.6 ± 0.075	-0.249 ± 0.087
AUAAAGCAAUAUUACGGGAU	-0.81 ± 0.055	-0.671 ± 0.083
